Data set [1] addresses T1, C-reactive protein (CRP) in clinical serum (human, UniProt P02741 19-224).
T1 sequence: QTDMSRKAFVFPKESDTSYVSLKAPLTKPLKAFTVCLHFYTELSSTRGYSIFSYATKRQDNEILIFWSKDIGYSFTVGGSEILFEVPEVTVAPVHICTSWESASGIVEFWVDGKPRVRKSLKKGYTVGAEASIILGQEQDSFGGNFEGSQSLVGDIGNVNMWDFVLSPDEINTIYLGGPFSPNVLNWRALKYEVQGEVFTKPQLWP
Briefly: EDL FET (AlGaN/GaN HEMT) biosensor; undiluted human sera; 0.34-23.2 mg/L CRP; 1X PBS with 1% BSA (or undiluted human serum for CRP), 5 min incubation for HIV-1 RT, no washing; Vd 2 V, Vg pulse 0 to 0.5 V (HIV-1 RT); pH and temperature not stated. To be noted: protein: native; chain copies: 5.

In another data set the target is T2, C-reactive protein (CRP) (UniProt P02741 19-224).
T2 sequence: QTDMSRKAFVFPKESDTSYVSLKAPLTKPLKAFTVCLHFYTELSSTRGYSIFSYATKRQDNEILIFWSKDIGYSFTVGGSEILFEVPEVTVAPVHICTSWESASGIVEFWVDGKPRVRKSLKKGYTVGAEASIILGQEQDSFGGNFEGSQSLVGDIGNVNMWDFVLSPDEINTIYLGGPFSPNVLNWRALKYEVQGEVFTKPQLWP
Briefly: EDL FET (AlGaN/GaN HEMT) biosensor; 1X PBS with 1% BSA; 1 fM-100 nM CRP; current gain increases with concentration; 1X PBS with 1% BSA (or undiluted human serum for CRP), 5 min incubation for HIV-1 RT, no washing; Vd 2 V, Vg pulse 0 to 0.5 V (HIV-1 RT); pH and temperature not stated. As to conditions: chain copies: 5.

The target of data set [2] is HIV-1 reverse transcriptase (HIV-1 RT) (HIV-1, UniProt P04585;P04585 588-1147;588-1027). Briefly: EDL FET (AlGaN/GaN HEMT) biosensor; 1X PBS with 1% BSA; 1 fM-10 pM RT; current gain decreases with concentration; 1X PBS with 1% BSA (or undiluted human serum for CRP), 5 min incubation for HIV-1 RT, no washing; Vd 2 V, Vg pulse 0 to 0.5 V (HIV-1 RT); pH and temperature not stated. As to conditions: copies: 1;1.

Consider two molecules from PMC5507911, “Beyond the Debye length in high ionic strength solution: direct protein detection with field-effect transistors (FETs) in human serum”.

B1: CRP aptamer (ssDNA)
DNA: GGCAGGAAGACAAACACGATGGGGGGGTATGATTTGATGTGGTTGTTGCATGATCGTGGTCTGTGGTGCTGT
modifications: 5' thiol (SH)
Turning to B1, the binding result (in data set [1]; with C-reactive protein (CRP)) was “binds” each time.

Take TTTTTTTATACGTGAGCGTGCTGTCCCCTAAAGGTGATACGTCAGGGG (ssDNA, 5' thiol (SH)) [HIV-1 RT aptamer]: the binding result in data set [2] is recorded as “binds”.
